Laboratory results from US5851983A, “Elastase inhibitory polypeptide and process for production thereof by recombinant gene technology” (Teijin Limited, priority 1987, dated 1998).

Columns and labels:
[1] = molecular target: T1, polymorphonuclear leukocyte elastase from human sputum (Homo sapiens, UniProt P08246); assay: Serine protease inhibitory assay, Example 12: human elastase; type: biochemical; details: read-out: concentration of inhibitory protein which exhibits a 50% inhibition; enzyme 10^-9 M; MeO-Suc-Ala-Ala-Pro-Val-pNA 0.3 mM; 37° C.
T1 construct: Polymorphonuclear leukocyte elastase from human sputum (EPC Co; Funakoshi Yakuhin); purchased EPC Co. (via Funakoshi Yakuhin); host or cells: human sputum
T1 sequence (P08246 30-267): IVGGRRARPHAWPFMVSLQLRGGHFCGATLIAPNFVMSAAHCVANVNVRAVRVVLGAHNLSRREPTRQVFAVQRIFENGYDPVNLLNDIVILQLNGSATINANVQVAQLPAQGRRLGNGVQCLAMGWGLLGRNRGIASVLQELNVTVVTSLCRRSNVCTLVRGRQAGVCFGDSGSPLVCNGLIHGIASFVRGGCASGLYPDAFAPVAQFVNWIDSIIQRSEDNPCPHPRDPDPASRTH
Procedure: To each well of a 96-well ELISA microplate were added 140 μl of the above-mentioned buffer, 20 μl of a test solution, and 20 μl of the enzyme solution, and the mixture was stirred at 37° C. for 30 minutes. Next, 20 μl of the substrate solution was added to the well, the mixture was stirred at 37° C. for one hour to develop same, and the absorbance at 405 nm was measured.

[2] = molecular target: T2, polymorphonuclear leucocyte elastase from human sputum (Homo sapiens, UniProt P08246); assay: Effect of serum albumin on elastase inhibitory activity (Example 13); type: biochemical; details: in the presence of 0.8% or 8% calf serum albumin
T2 construct: Polymorphonuclear leukocyte elastase from human sputum (EPC Co; Funakoshi Yakuhin); purchased EPC Co. (via Funakoshi Yakuhin); host or cells: human sputum
T2 sequence (P08246 30-267): T1 sequence (P08246 30-267)
Procedure: The inhibitory activity of a active-form (Asn^55 -Ala^107) SLPI fragment polypeptide on polymorphonuclear leucocyte elastase from human sputum was measured by the same procedure as in Example 12 in the presence of 0.8% or 8% calf serum albumin.

[3] = molecular target: T2, polymorphonuclear leucocyte elastase from human sputum; assay: Treatment with polymorphonuclear leucocyte elastase from human sputum (Examples 27, 30); type: in vitro ADME; details: 37° C.; N-terminal sequencing of SDS-PAGE bands
Procedure: Polymorphonuclear leucocyte elastase from human sputum (EPC, Funakoshi Yakuhin) and SLPI were separately dissolved in a buffer (0.1M HEPES, 0.1M NaCl, 0.1% PEG 6000, pH 7.5) and the elastase solution was added to the SLPI solution, and the mixture was incubated at 37° C. Samples were taken as time elapsed, and to each sample were added Tris-HCl buffer (pH 6.8), SDS, 2-mercaptolethanol, glycerol, and Coomassie Brilliant Blue to final concentrations of 50 mM, 4 w/v %, 2 v/v %, 12 v/v % and 0.01 w/v % respectively. The mixture was subjected to SDS-polyacrylamide gel electrophoresis using Tricine (Sigma) as a polar buffer (Schagger, H., Anal. Biochem. 166, 368, 1987). After the electrophoresis, the gel was stained with Coomassie Brilliant Blue G-250, and decoloured with 50% (v/v) methanol/10% (v/v) acetic acid. […]
(3) Next, polypeptides thus generated were electrically transferred to a membrane (Immobilon-p^SQ Millipore) using a Milli Blot-SDE apparatus (Millipore). […] After drying, relevant bands were cut out, and the peptide was cleaved from the N-terminal using an Applied Biosystems Protein-Sequencer (Applied Biosystems; 477A), and after PTH-conversion, the resulting amino acid derivatives were analyzed by a PTH-Amino acid analyzer (Applied Biosystems, 120A) to determine the N-terminal amino acid sequence. […]

(Asn^55 -Ala^107) SLPI: polypeptide having an amino acid sequence starting with the 55th Asn and ending at the 107th Ala of SLPI (NPTRRKPGKCPVTYGQCLMLNPPNFCEMDGQCKRDLKCCMGMCGKSCVSPVKA)
IC50 [1]: 1 nM
effect of calf serum albumin on elastase inhibitory activity [2]: had no effect on its activity
selective cleavage sites with elastase from human sputum [3]: cleaved at the site between Thr^57 -Arg^58
